Biological target: recombinant aggrecan G1G2 (globular domain 1-globular domain 2 of human aggrecan with N-terminal FLAG tag and C-terminal His tag), P16112
Sequence (P16112 20-675): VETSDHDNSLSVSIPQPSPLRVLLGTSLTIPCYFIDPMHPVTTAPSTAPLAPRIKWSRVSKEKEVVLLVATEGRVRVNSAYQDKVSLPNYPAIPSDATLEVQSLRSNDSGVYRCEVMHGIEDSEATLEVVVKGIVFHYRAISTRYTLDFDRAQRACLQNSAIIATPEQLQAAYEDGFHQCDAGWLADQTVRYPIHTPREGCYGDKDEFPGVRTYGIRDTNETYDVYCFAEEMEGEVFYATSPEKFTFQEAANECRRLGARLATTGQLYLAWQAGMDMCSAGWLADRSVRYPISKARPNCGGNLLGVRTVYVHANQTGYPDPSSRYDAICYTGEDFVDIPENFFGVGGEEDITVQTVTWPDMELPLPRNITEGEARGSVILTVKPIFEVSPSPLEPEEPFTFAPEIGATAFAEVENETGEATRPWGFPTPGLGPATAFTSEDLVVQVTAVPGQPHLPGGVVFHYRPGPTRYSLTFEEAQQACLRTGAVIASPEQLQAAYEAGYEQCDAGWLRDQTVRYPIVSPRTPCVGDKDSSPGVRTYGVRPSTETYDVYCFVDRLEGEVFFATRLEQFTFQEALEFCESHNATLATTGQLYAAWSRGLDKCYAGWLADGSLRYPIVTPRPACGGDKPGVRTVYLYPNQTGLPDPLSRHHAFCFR

B1: MDTS8 full-length protein (MDTS8Full) with FLAG tag added to the C-terminus, expressed from plasmid pCEPdE2-MDTS8Full-FLAG (protein)
chain: MECALLLACAFPAAGSGPPRGLAGLGRVAKALQLCCLCCASVAAALASDSSSGASGLNDDYVFVTPVEVDSAGSYISHDILHNGRKKRSAQNARSSLHYRFSAFGQELHLELKPSAILSSHFIVQVLGKDGASETQKPEVQQCFYQGFIRNDSSSSVAVSTCAGLSGLIRTRKNEFLISPLPQLLAQEHNYSSPAGHHPHVLYKRTAEEKIQRYRGYPGSGRNYPGYSPSHIPHASQSRETEYHHRRLQKQHFCGRRKKYAPKPPTEDTYLRFDEYGSSGRPRRSAGKSQKGLNVETLVVADKKMVEKHGKGNVTTYILTVMNMVSGLFKDGTIGSDINVVVVSLILLEQEPGGLLINHHADQSLNSFCQWQSALIGKNGKRHDHAILLTGFDICSWKNEPCDTLGFAPISGMCSKYRSCTINEDTGLGLAFTIAHESGHNFGMIHDGEGNPCRKAEGNIMSPTLTGNNGVFSWSSCSRQYLKKFLSTPQAGCLVDEPKQAGQYKYPDKLPGQIYDADTQCKWQFGAKAKLCSLGFVKDICKSLWCHRVGHRCETKFMPAAEGTVCGLSMWCRQGQCVKFGELGPRPIHGQWSAWSKWSECSRTCGGGVKFQERHCNNPKPQYGGLFCPGSSRIYQLCNINPCNENSLDFRAQQCAEYNSKPFRGWFYQWKPYTKVEEEDRCKLYCKAENFEFFFAMSGKVKDGTPCSPNKNDVCIDGVCELVGCDHELGSKAVSDACGVCKGDNSTCKFYKGLYLNQHKANEYYPVVIIPAGARSIEIQELQVSSSYLAVRSLSQKYYLTGGWSIDWPGEFPFAGTTFEYQRSFNRPERLYAPGPTNETLVFEILMQGKNPGIAWKYALPKVMNGTPPATKRPAYTWSIVQSECSVSCGGGYINVKAICLRDQNTQVNSSFCSAKTKPVTEPKICNAFSCPAYWMPGEWSTCSKACAGGQQSRKIQCVQKKPFQKEEAVLHSLCPVSTPTQVQACNSHACPPQWSLGPWSQCSKTCGRGVRKRELLCKGSAAETLPESQCTSLPRPELQEGCVLGRCPKNSRLQWVASSWSECSATCGLGVRKREMKCSEKGFQGKLITFPERRCRNIKKPNLDLEETCNRRACPAHPVYNMVAGWYSLPWQQCTVTCGGGVQTRSVHCVQQGRPSSSCLLHQKPPVLRACNTNFCPAPEKREDPSCVDFFNWCHLVPQHGVCNHKFYGKQCCKSCTRKIAAADYKDDDDK
degradation product reactive with the anti-aggrecanase neoepitope antibody (western blotting after overnight reaction at 37 C): such degradation products were detected when the culture supernatant of the HEK293-EBNA cell transfected with the plasmid pCEPdE2-MDTS8Full-FLAG was reacted with the recombinant G1G2

Reference: patent US20030185828
